# From patent publication US20110124574A1, “RESTORATION OF ESTROGEN RECEPTOR-(ALPHA) ACTIVITY” (priority 2008, published 2011)
# B1: recombinant Wnt-5a: recombinant Wnt-5a protein (R&D Systems) (protein, UniProt P41221 62-380, looked up)
# Protein Wnt-5a: IIGAQPLCSQLAGLSQGQKKLCHLYQDHMQYIGEGAKTGIKECQYQFRHRRWNCSTVDNTSVFGRVMQIGSRETAFTYAVSAAGVVNAMSRACREGELSTCGCSRAARPKDLPRDWLWGGCGDNIDYGYRFAKEFVDARERERIHAKGSYESARILMNLHNNEAGRRTVYNLADVACKCHGVSGSCSLKTCWLQLADFRKVGDALKEKYDSAAAMRLNSRGKLVQVNSRFNSPTTQDLVYIDPSPDYCVRNESTGSLGTQGRLCNKTSEGMDGCELMCCGRGYDQFKTVQTERCHCKFHWCCYVKCKKCTEIVDQFVCK
# System: ERα
# Experiment: ERα protein expression by Western blot in stimulated MDA-MB-231 cells
# Assay type: cell-based, human
# Settings: stimulation 24 and 48 hours, rWnt-5a 0.6 μg/ml, rWnt-3a 0.1 μg/ml, peptides 100 μM
# Method: Breast cancer cells were grown in 6 well plates, and stimulated with recombinant Wnt-5a protein (rW5a), the Wnt-5a derived Foxy-5 peptide (F5), recombinant Wnt-3a protein (rW3a), or a formylated random hexapeptide (Rdm) for 24 or 48 h. Following treatment cells were lysed and subjected to SDS-PAGE, transferred to nitrocellulose membranes and blotted for ERα expression. A: MDA-MB-231 cells stimulated with recombinant Wnt-5a, Foxy-5, Wnt-3a, Rdm. B: MDA-MB-468 cells stimulated with recombinant Wnt-5a or Foxy-5. C: 4T1 cells stimulated with recombinant Wnt-5a or Foxy-5. Positive controls (Pos) were included in order to confirm the correct band size for ERα. Two different positive controls were used: T47D cell lysates known to express ERα and MDA-MB-231 cells transiently transfected with a full length ERα plasmid, resulting in extremely high ERα expression (top row, right panel, third row, right panel).
# Stimulation of cells was performed with recombinant Wnt-5a (0.6 μg/ml) and recombinant Wnt-3a (0.1 μg/ml and in a control experiment, 0.6 μg/ml) (R&D Systems Abington, UK) for times as indicated. The Wnt-5a derived formylated hexapeptide, Foxy-5 (formyl-MDGCEL) (SEQ. ID. NO. 1) designed in the laboratory of the inventors, and a formylated random hexapeptide (formyl-MSADVG) (SEQ: ID: NO: 16) were either synthesized by Pepscan Presto (Lelystad, The Netherlands) or Inbiolabs (Tallinn, Estonia). The peptides were purified by RP-HPLC and mass spectrometry, and the >95% pure peptides were synthesized three times. Cells were treated with Foxy-5 or random peptide at a concentration of 100 μM for times as indicated. All other chemicals if not otherwise stated were purchased from Sigma Chemicals (St. Louis, Mo.).
# Cells were lysed in Triton lysis buffer (50 mM Tris (pH7.5), 1% Triton x-100, 140 mM NaCl, 0.5 mM EDTA, 0.5 MgCl2, 10 mM NaF) with the addition of fresh leupeptin (1 μg/ml), Pefabloc (2 mM), aprotinin (20 μg/ml) and Na3VO4 (4 mM). […] Scanning and densitometry was performed using a Bio-Rad (Hercules Calif.) GS-800 densitometer with Quantity One software. […]
molecule,measurement,value
B1,levels of ERα protein,increase
